Data: the DeepSol protein solubility set

experiment: soluble on expression in E. coli; label from the status in PepcDB or PDB records

Sequence | soluble on expression in E. coli
MKIDYLTLFPEMFDGVLNHSIMKRAQENNKLQINTVNFRDYAINKHNQVDDYPYGGGQGMVLKPEPVFNAMEDLDVTEQTRVILMCPQGEPFSHQKAVELSKADHIVFICGHYEGYDERIRTHLVTDEISMGDYVLTGGELPAMTMTDAIVRLIPGVLGNEQSHQDDSFSDGLLEFPQYTRPREFKGLTVPDVLLSGNHANIDAWRHEQKLIRTYNKRPDLIEKYPLTNEDKQILERYKIGLKKG | not soluble
MGSDKIHHHHHHMDKELDLAVTCYGKVKPLKYDLVLLPWGATEPHNLHLPYLTDCILSHDIALDAAKLAKTHYGIRCMVMPYVTAGSQNPGQRELDFCIHYRYETQKAILSDLVASLYAQGYRKMVIINGHGGNTFKSMIRDLSLDYPDFLIASSEWFAFIPAKEYFDEPGDHADELETSVMMHYHPELVNLDEAGDGNYKKFASQMLNEKVAWIPRNWQNVSQDTGIGNPKKASAGKGKKYAEAVVAKYALLFEELVHKELY | not soluble
MGSDKIHHHHHHMSIRTRSRKSTPKQPESALRRWLKERHITEVECLVPDITGNARGKIIPADKFSHDYGTRLPEGIFATTVTGDFPDDYYALTSPSDSDMHLRPDASTVRMVPWAADPTAQVIHDCYTKDGQPHELAPRNVLRRVLEAYAEVKLQPVVAPELEFFLVQKNTDPDFPLLPPAGRSGRPETARQSYSIDAVNEFDPILDLMYDYCDAMELDVDTLIHESGAAQLEVNFTHADALSRADQVFLFKRTMREAALRHGVYATFLAKPMETEPGSAMHIHQSLLHAGTGKNVFSGKREGGFSDTFAHYLGGLQKYIPMAMGLLAPNVNSYRRLMFGEVSPSNVLWGFDNRTCGLRVPIDAPQNMRVESRFAGSDANPYLAMAATLACGLLGIREKLEPTAPISSNGKEQGYDLPRSLGEALDELEGCEALKEMLGPRFVRAYISVKRKEYETFFRVISSWEREFLLLNV | not soluble
MRTPYCVADYLLDRLTDCGADHLFGVPGDYNLQFLDHVIDSPDICWVGCANELNASYAADGYARCKGFAALLTTFGVGELSAMNGIAGSYAEHVPVLHIVGAPGTAAQQRGELLHHTLGDGEFRHFYHMSEPITVAQAVLTEQNACYEIDRVLTTMLRERRPGYLMLPADVAKKAATPPVNALTHKQAHADSACLKAFRDAAENKLAMSKRTALLADFLVLRHGLKHALQKWVKEVPMAHATMLMGKGIFDERQAGFYGTYSGSASTGAVKEAIEGADTVLCVGTRFTDTLTAGFTHQLTPAQTIEVQPHAARVGDVWFTGIPMNQAIETLVELCKQHVHAGLMSSSSGAIPFPQPDGSLTQENFWRTLQTFIRPGDIILADQGTSAFGAIDLRLPADVNFIVQPLWGSIGYTLAAAFGAQTACPNRRVIVLTGDGAAQLTIQELGSMLRDKQHPIILVLNNEGYTVERAIHGAEQRYNDIALWNWTHIPQALSLDPQSECWRVSEAEQLADVLEKVAHHERLSLIEVMLPKADIPPLLGALTKALEACNNA | soluble
MIISPLFLKDKSNSEDDASWVSRMMPVDPERGFPLNSHRSWHGGIHIPHTDSGGTPEKIRAIADGTVHSLRQPVGDKKGIPPYNYNGATDCGYVLLKHETEIGSGENAKVVYFSLYMHLASIDAAVKTGEKIYRKDPIGTVGQVDGGNAVHFQIFCDDTNLTKLVGRTTPELDLTKNGRTDAVYGDMYFYLPTGTKFYSHAPANNATTTTEAETYTSTEPLFVSMSFDKGKCTMLTRKKGVFSIGKYSEVGEKLENTDGADYEYNVYAQAKKLYPQSQSAGYELLRFGRVINTDYETLVPADAPLWRTISYPGGKGVVNLALPAVKKFSDGDFPHWTGWQLIDDDTDENSQCNSEQVLCRIGDDMQGLICHLPLEWDASTLEKRLSWLKTTVINESLANQKASHQVDDTGNNASGYAFDNINPDMSVLNAQSTPSFEQAAKDTAMAEADWNALIEHAKALCFDVSGLPVGRVWHFNPISFIAHFRKCGWLDPEKIKSILTSALNKKRNVRKITLIEKASDSNYTFLNLAMRKYNILTPNRQSHFLGQGAVESDSLTAMQEVSQEQVIVNGKQTGGGIVIKSTLNESELGHWYGSEPSELDIYYSGNKYNKNGGLIAGSYSWSNGNCGDVDAQKFRGRGFKMLTGRDKYADYWVYRGWLLKSSFDAYWWDDVKYKSKNLKAMKKRPAIIDDPHKITASPYNCIDSGSFFITCFRRSTVKEIDKDQAESADDSVVTKVTQAINGGDIGLSQRKVMTNNAKGKLNDKY | not soluble
